# According to US11813311B2, “Treatment and prevention of metabolic diseases” (Singapore Health Services PTE LTD., priority 2019, dated 2023):
# B1: X203: mouse anti-mouse IL-11 IgG (IgG1κ), neutralising; VH SEQ ID NO:22, VL SEQ ID NO:23 (antibody, V domains shown)
# VH: EVQLQQSGPELVKPGASVKIPCKASGYTFTDYNMDWVKQSHGKSLEWIGDINPHNGGPIYNQKFTGKATLTVDKSSSTAYMELRSLTSEDTAVYYCARGELGHWYFDVWGTGTTVTVSS
# VL: DIVLTQSPASLAVSLGQRATISCRASKSVSTSGYSYIHWYQQKPGQPPKLLIYLASNLDSGVPARFSGSGSGTDFTLNIHPVEEEDAATYYCQHSRDLPPTFGGGTKLEIK
# modifications: Enx203 VH; Enx203 VL
# B2: X209: mouse anti-mouse IL-11Rα IgG (IgG1κ), neutralising; VH SEQ ID NO:24, VL SEQ ID NO:25 (antibody, V domains shown)
# VH: QVQLQQPGAELVRPGSSVKLSCKASGYTFTNYWMHWLKQRPVQGLEWIGNIGPSDSKTHYNQKFKDKATLTVDKSSSTAYMQLNSLTSEDSAVYYCARGDYVLFTYWGQGTLVTVSA
# VL: DIVLTQSPATLSLSPGERATLSCRASQSISNNLHWYQQKSHEAPRLLIKYASQSISGIPARFSGSGSGTDFTLSFSSLETEDFAVYFCQQSYSWPLTFGQGTKLEIK
# modifications: Enx209 VH; Enx209 VL
# Columns and labels:
# MCD-fed db/db mice = assay: MCD-fed db/db mouse NASH model; type: in vivo
# Experimental: FIGS. 20A to 20N. Therapeutic targeting of Il-11 inhibits and reverses NASH pathologies in preclinical models. (A) Schematic showing therapeutic use of X203 and X209 (10 mg/kg, biweekly) in HFMCD-fed mice for experiments shown in (B-E). X203, X209 or IgG isotype control were administered from week 6 to 10 of HFMCD diet. (B) Representative liver histological images (Masson's Trichrome staining; scale bars, 100 μm), (C) relative liver hydroxyproline content, (D) relative liver pro-inflammatory mRNA expression levels (n≥6/group) and (E) serum ALT levels. (F) Western blots of hepatic Erk activation status. (G) Schematic of X203 or IgG administration to MCD-fed db/db mice for experiments shown in H-N. Western blots of hepatic (H) Il-11 and Gapdh, (I) p-Erk and Erk. (J) Representative Masson's Trichrome images of liver from X203 or IgG-treated MCD-fed db/db mice (scale bars, 100 μm). The levels of (K) hepatic triglyceride, (L) relative liver hydroxyproline, (M) serum ALT, and (N) mRNA expression of liver pro-inflammatory markers (n≥5/group). (C-E,K-N) Data are shown as box-and-whisker with median (middle line), 25th-75th percentiles (box) and min-max percentiles (whiskers); two-tailed, Tukey-corrected Student's t-test. FC: fold change; NC: normal chow; HFMCD: high fat methionine- and choline-deficient; MCD: methionine- and choline-deficient.
# Male BKS.Cg-Dock7m+/+LeprdbJ (db/db) mice on C57BL/6J genetic background were 12 weeks of age and at the hepatic steatosis stage when they were fed methionine- and choline-deficient diet (MCD, A02082002BRi, Research Diets) for 8 weeks; control mice were of the same genotype. Durations of diet and antibody therapies are described.
# (§1) Mice were injected intraperitoneally with either antagonist anti-IL-11 antibody, antagonist anti-IL11RA antibody or an identical amount of IgG isotype control for the treatment durations outlined in the figures.
# WDF-fed mice [1] = assay: WDF NASH reversal model (Example 4); type: in vivo, mouse; conditions: WDF 16 weeks, then 10 mg/kg for 8 weeks on continued WDF
# Experimental: FIGS. 21A to 21L. Inhibition of Il-11 signalling reverses NASH pathologies in preclinical models and HSC-to-myofibroblast transformation. (A) Schematic showing therapeutic dosing regime in NASH reversal experiment for data shown in (B-G). Mice were fed with WDF for 16 weeks to induce NASH and then treated with (10 mg/kg) X209 or IgG for 8 weeks while they were on continuous WDF feeding. (B) Total liver hydroxyproline content, the levels of (C) liver triglycerides, (D) serum ALT, (E), fasting blood glucose, (F) serum triglycerides, and (G) serum cholesterol in mice on NC and IgG- and X209-treated WDF (n≥5/group). (H) Schematic showing reversal experiment in which fibrosis was established by feeding mice HFMCD for 10 weeks and then replacing this with NC and initiating antibody (X203 and X209) therapy. Mice were euthanized at the indicated time points. (I) Total liver hydroxyproline content (dotted line represents the mean value of NC=0.93) and (J) relative mRNA expression of Mmp2/Timp1 at 1-, 3-, 6-weeks after concurrent metabolic intervention (diet switch) and X203, X209, or IgG treatment (n≥3/group). Quantification of ACTA2^+ve immunostaining (scale bars, 200 μm) following incubation (K) with TGFβ1 or (L) with PDGF, either prior to or after the addition of X203, X209, or IgG (n=5/group). (K-L) TGFβ1 (5 ng/ml), PDGF (20 ng/ml), IgG, X203 and, X209 (2 μg/ml). (B-G, K-L) Data are shown as box-and-whisker with median (middle line), 25th-75th percentiles (box) and min-max percentiles (whiskers); (I) data are shown as mean±s.d; (J) data are represented as line chart (mean) and transparencies indicate s.d. (B) Two-tailed Student's t-test (C-G,K-L) two-tailed, Tukey-corrected Student's t-test; (I-J) two-way ANOVA. FC: fold change; NC: normal chow; WDF: Western diet+15% (w/v) fructose; HFMCD: high fat methionine- and choline-deficient.
# Ten week old male C57Bl/6J mice were fed Western diet (D12079B, Research Diets), supplemented with 15% weight/volume fructose in drinking water to mimic NAFLD/NASH like humans 17,18, whereas control mice received normal chow and tap water. Durations of diet and antibody therapies are described.
# as §1
# Mice were fasted for 6 h prior to blood collection (via tail snip) and Accu-Chek blood glucose meter was used to take fasting glucose measurements.
# WDF-fed mice [2] = assay: WDF diet-induced obesity/T2D model (Example 2); type: in vivo, mouse
# Experimental: Mice were injected intraperitoneally with 10 mg/kg of an antagonist anti-IL-11 antibody, an antagonist anti-IL-11Rα antibody, or an identical amount of isotype-matched IgG control antibody. The anti-IL-11 and anti-IL-11Rα antibodies bind to mouse IL-11 and mouse IL-11Rα respectively, and inhibit IL-11 mediated signalling.
# In order to establish metabolic diseases such as obesity and T2D, mice were fed Western diet (D12079B, Research Diets), supplemented with 15% weight/volume fructose in drinking water (WDF) for 16 weeks, from 12 weeks of age.
# Total body fat and lean mass measurements were performed every two weeks by EchoMRI analysis using 4in1 Body Composition Analyzer for Live Small Animals.
# For fasting blood glucose measurements, mice were fasted for 6 hours prior to blood collection (via tail snip), and Accu-Chek blood glucose meter was used to obtain fasting glucose measurements.
# For intraperitoneal glucose tolerance tests, mice were fasted for 6 h prior to being subjected to ipGTT. Basal fasting glucose was measured by tail snip using Accu-Chek blood glucose meter. 2 g/kg lean mass glucose was injected intraperitoneally, and glucose measurements were taken every 15 min for 2 hours. The area under the curve (AUC) was calculated, and plotted as bar graphs.
# For histological analysis, pancreas samples were excised and fixed for 24 hours at RT in 4% neutral-buffered formalin (NBF), and stored in 30% sucrose. 5 μm cryosections were stained with either glucagon or insulin antibodies overnight, and visualized with ImmPRESS HRP IgG polymer detection kit (Vector Laboratories) with ImmPACT DAB Peroxidase Substrate (Vector Laboratories) according to standard protocols, and examined by light microscopy.
molecule,measurement,setting,value
B1,ALT levels,MCD-fed db/db mice,lowering
same,hepatic Erk activation,MCD-fed db/db mice,inhibited
same,hepatic fibrosis,MCD-fed db/db mice,reduced
same,hepatic inflammation,MCD-fed db/db mice,reduced
same,hepatic steatosis,MCD-fed db/db mice,reduced
B2,hepatic Erk activation,WDF-fed mice [1],inhibited
same,liver fibrosis,WDF-fed mice [1],reversal
same,liver inflammation,WDF-fed mice [1],reversal
same,liver steatosis,WDF-fed mice [1],reversal
same,serum ALT levels,WDF-fed mice [1],reduction
same,serum cholesterol levels,WDF-fed mice [1],reduction
same,serum glucose,WDF-fed mice [1],reduction
same,serum triglycerides,WDF-fed mice [1],reduction
same,body weight,WDF-fed mice [2]; WDF-fed mice vs IgG control,significant reduction in body weight
same,fasting blood glucose levels,WDF-fed mice [2]; WDF-fed mice vs IgG control,significantly lower
same,fat mass,WDF-fed mice [2]; WDF-fed mice vs IgG control,significantly reduced fat mass
same,glucose tolerance (ipGTT),WDF-fed mice [2]; WDF-fed mice vs IgG control,significant improvement in glucose tolerance
same,lean mass,WDF-fed mice [2]; WDF-fed mice vs IgG control,increase in lean mass
same,serum cholesterol levels,WDF-fed mice [2]; WDF-fed mice vs IgG control,significantly lower
same,serum triglyceride levels,WDF-fed mice [2]; WDF-fed mice vs IgG control,significantly lower
same,pancreas weight,WDF-fed mice [2]; treated from 8 to 16 weeks or from 16 to 24 weeks,remarkable protection against WDF-induced loss of pancreas
same,glucagon staining in pancreatic islets,WDF-fed mice [2]; treatment from 16 to 24 weeks,remarkably reduced
same,insulin expression in the islets,WDF-fed mice [2]; treatment from 16 to 24 weeks,improved
same,islet hyperplasia,WDF-fed mice [2]; treatment from 16 to 24 weeks,remarkably reduced
